Like-named read-outs stand apart in the source and are kept apart here. Values belong to the binder of their own block, whether it stands above or below them.
Assays:
[1] = molecular target: T1, cell-bound human DR5 (Colo205 and other human cell lines) (human, UniProt O14763 56-440); assay: cell-based or functional assay
[2] = molecular target: T1, cell-bound human DR5 (Colo205 and other …); assay: cell-based or functional assay; remark: listed apart in the source
[3] = molecular target: T2, OPG (TNFRSF11B, Lys17-Ile197) (UniProt O00300 17-197); assay: ELISA, receptor ECD from E. coli lysate on His capture plate;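 also: binding specificity screen across TNF receptor superfamily ectodomains, anti-V5 detection as expression reference, primary antibody incubation 1 h at room temperature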
T2 construct: range 17-197; ECD cloned into pBadThioTopo; E. coli lysate on His capture plates
T2 sequence (looked up): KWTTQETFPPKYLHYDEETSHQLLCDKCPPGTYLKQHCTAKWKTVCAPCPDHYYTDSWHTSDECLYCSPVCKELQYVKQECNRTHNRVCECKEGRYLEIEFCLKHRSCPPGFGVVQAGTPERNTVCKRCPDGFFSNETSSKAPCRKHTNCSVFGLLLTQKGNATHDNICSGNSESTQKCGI

[4] = molecular target: T3, CD137 extracellular domain (TNFRSF9, Glu19-Ile188) (UniProt Q07011 19-188); assay: as above
T3 construct: range 19-188; ECD cloned into pBadThioTopo; E. coli lysate on His capture plates
T3 sequence (Q07011 19-188 limits assumed): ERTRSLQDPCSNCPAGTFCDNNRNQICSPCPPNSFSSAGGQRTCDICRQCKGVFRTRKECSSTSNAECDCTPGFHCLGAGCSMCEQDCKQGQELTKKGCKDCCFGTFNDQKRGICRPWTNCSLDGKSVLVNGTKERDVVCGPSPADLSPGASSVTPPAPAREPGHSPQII

[5] = molecular target: T4, DcR2 extracellular domain (TNFRSF10D, Thr57-Thr198) (UniProt Q9UBN6 57-198); assay: as above
T4 construct: range 57-198; ECD cloned into pBadThioTopo; E. coli lysate on His capture plates
T4 sequence (looked up): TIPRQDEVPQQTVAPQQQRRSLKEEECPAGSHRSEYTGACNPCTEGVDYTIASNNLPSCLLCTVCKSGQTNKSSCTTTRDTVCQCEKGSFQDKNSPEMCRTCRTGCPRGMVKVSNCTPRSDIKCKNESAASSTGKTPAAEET

[6] = molecular target: T5, FAS extracellular domain (TNFRSF6, Ser20-Gly175) (UniProt P25445 20-175); assay: as above
T5 construct: ECD cloned into pBadThioTopo; E. coli lysate on His capture plates
T5 sequence (looked up): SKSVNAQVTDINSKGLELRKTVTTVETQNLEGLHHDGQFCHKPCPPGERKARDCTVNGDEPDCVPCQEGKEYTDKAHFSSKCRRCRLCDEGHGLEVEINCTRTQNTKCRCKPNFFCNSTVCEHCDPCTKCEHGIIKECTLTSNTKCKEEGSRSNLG

[7] = molecular target: T6, CD40 extracellular domain (TNFRSF5, Val18-Leu192) (UniProt P25942 18-192); assay: as above
T6 construct: range 18-192; ECD cloned into pBadThioTopo; E. coli lysate on His capture plates
T6 sequence (P25942 18-192 limits assumed): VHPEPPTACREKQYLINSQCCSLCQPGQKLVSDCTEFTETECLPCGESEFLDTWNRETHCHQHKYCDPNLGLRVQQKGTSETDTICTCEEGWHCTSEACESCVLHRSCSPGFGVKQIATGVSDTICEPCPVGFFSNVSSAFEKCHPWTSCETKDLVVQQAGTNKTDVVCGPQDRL

[8] = molecular target: T7, CD27 extracellular domain (TNFRSF7, Thr21-Ser187) (UniProt P26842 21-187); assay: as above
T7 construct: range 21-187; ECD cloned into pBadThioTopo; E. coli lysate on His capture plates
T7 sequence (P26842 21-187 limits assumed): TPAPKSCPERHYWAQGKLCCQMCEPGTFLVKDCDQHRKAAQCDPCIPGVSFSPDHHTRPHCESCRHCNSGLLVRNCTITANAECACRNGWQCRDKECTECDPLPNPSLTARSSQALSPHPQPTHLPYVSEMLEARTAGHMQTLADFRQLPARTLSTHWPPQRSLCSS

[9] = molecular target: T8, TNFR3 extracellular domain (TNFRSF3, Pro30-Thr224) (UniProt P36941 30-224); assay: as above
T8 construct: range 30-224; ECD cloned into pBadThioTopo; E. coli lysate on His capture plates
T8 sequence (P36941 30-224 limits assumed): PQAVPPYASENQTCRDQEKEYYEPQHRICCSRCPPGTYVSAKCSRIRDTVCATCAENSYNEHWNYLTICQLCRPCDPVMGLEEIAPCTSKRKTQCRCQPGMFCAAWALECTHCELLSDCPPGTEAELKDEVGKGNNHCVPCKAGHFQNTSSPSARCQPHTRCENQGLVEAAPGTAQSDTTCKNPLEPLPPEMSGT

[10] = molecular target: T9, OX40 extracellular domain (TNFRSF4, Gly33-Gly212) (UniProt P43489 33-212); assay: as above
T9 construct: ECD cloned into pBadThioTopo; E. coli lysate on His capture plates
T9 sequence (looked up): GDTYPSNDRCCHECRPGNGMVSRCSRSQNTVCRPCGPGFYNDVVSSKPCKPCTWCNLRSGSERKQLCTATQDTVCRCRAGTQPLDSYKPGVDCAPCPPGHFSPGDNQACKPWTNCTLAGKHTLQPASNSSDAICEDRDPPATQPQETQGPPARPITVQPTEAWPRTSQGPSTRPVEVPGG

[11] = molecular target: T10, TNFR1 extracellular domain (TNFRSF1A, Leu34-Thr211) (UniProt P19438 34-211); assay: as above
T10 construct: range 34-211; ECD cloned into pBadThioTopo; E. coli lysate on His capture plates
T10 sequence (looked up): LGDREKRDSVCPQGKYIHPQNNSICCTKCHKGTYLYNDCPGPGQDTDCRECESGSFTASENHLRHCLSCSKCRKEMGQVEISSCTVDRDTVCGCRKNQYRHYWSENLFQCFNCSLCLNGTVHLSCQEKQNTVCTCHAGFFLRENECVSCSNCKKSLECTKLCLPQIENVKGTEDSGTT

[12] = molecular target: T11, DcR3 (TNFRSF6B, Val27-Ala176) (UniProt O95407 27-176); assay: as above
T11 construct: range 27-176; ECD cloned into pBadThioTopo; E. coli lysate on His capture plates
T11 sequence (looked up): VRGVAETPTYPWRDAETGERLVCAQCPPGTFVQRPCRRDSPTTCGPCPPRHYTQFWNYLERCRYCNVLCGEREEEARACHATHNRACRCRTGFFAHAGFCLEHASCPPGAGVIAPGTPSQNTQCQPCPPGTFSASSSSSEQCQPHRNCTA

[13] = molecular target: T12, BAFFR extracellular domain (TNFRSF13C, Met1-Gly64) (UniProt Q96RJ3 1-64); assay: as above
T12 construct: range 1-64; ECD cloned into pBadThioTopo; E. coli lysate on His capture plates
T12 sequence (Q96RJ3 1-64 limits assumed): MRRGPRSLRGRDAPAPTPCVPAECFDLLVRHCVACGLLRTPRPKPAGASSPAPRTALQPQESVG

[14] = molecular target: T13, hGITR (human, UniProt Q9Y5U5); assay: as above
T13 construct: extracellular domain, E. coli lysate captured on a His capture plate; Target named only on the sheet; the construct is not described in the text
T13 sequence (extracellular domain, looked up): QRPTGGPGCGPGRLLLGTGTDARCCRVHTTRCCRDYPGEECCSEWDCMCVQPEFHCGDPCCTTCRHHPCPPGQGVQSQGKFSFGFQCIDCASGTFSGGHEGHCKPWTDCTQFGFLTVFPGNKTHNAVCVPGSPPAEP

[15] = molecular target: T1, cell-bound human DR5 (Colo205 and other …); assay: cell-based or functional assay; remark: listed apart in the source
[16] = molecular target: T1, cell-bound human DR5 (Colo205 and other …); assay: cell-based or functional assay; remark: listed apart in the source
[17] = molecular target: T1, cell-bound human DR5 (Colo205 and other …); assay: cell-based or functional assay; remark: listed apart in the source

EC50, caspase 3/7 in Colo205 tumor after a single dose in mice, indirect response model [2]: 1.41 ng/mg tissue
binding result [3]: no binding (tested: not stated)
binding result [4]: no binding (tested: not stated)
binding result [5]: no binding (tested: not stated)
binding result [6]: no binding (tested: not stated)
binding result [7]: no binding (tested: not stated)
binding result [8]: no binding (tested: not stated)
binding result [9]: no binding (tested: not stated)
binding result [10]: no binding (tested: not stated)
binding result [11]: no binding (tested: not stated)
binding result [12]: no binding (tested: not stated)
binding result [13]: no binding (tested: not stated)
binding result [14]: no binding (tested: not stated)
B1: 7A12 tetra (tetravalent anti-DR5 NB construct) (other)
chain: EVQLVESGGGLVQAGGSLRLSCAASGRTFSNYAMGWFRQAPGKEREFVAALNWSGGSTYYVDSVKGRFTISRDNAKNTVYLQMNSLKPEDTAVYYCAAAGSFSLGGRPYGDDYWGKGTLVTVSSGGGGSGGGGSGGGGSGGGGSGGGGSGGGGSGGGGSEVQLVESGGGLVQAGGSLRLSCAASGRTFSNYAMGWFRQAPGKEREFVAALNWSGGSTYYVDSVKGRFTISRDNAKNTVYLQMNSLKPEDTAVYYCAAAGSFSLGGRPYGDDYWGKGTLVTVSSGGGGSGGGGSGGGGSGGGGSGGGGSGGGGSGGGGSEVQLVESGGGLVQAGGSLRLSCAASGRTFSNYAMGWFRQAPGKEREFVAALNWSGGSTYYVDSVKGRFTISRDNAKNTVYLQMNSLKPEDTAVYYCAAAGSFSLGGRPYGDDYWGKGTLVTVSSGGGGSGGGGSGGGGSGGGGSGGGGSGGGGSGGGGSEVQLVESGGGLVQAGGSLRLSCAASGRTFSNYAMGWFRQAPGKEREFVAALNWSGGSTYYVDSVKGRFTISRDNAKNTVYLQMNSLKPEDTAVYYCAAAGSFSLGGRPYGDDYWGKGTLVTVSS
notes: four VHH units in one chain joined by GlySer linkers; not shown: C-terminal c-myc/His6 tag from vector pAX51
IC50, cell survival, 184A1 [1]: ≥ 20 nM
IC50, cell survival, A549 [1]: ≥ 20 nM
IC50, cell survival, ARPE-19 [1]: ≥ 20 nM
IC50, cell survival, BxPC-3 [1]: 0.023 nM
IC50, cell survival, Colo205 [1]: 0.0066 nM
IC50, cell survival, H226 [1]: ≥ 20 nM
IC50, cell survival, H2052 [1]: 0.033 nM
IC50, cell survival, H2122 [1]: 0.0036 nM
IC50, cell survival, HAAE-1 [1]: ≥ 20 nM
IC50, cell survival, Huvec [1]: ≥ 20 nM
IC50, cell survival, Jurkat [1]: 0.037 nM
IC50, cell survival, M30 [1]: ≥ 20 nM
IC50, cell survival, Malme-3 [1]: ≥ 20 nM
IC50, cell survival, MiaPaCa-2 [1]: 0.041 nM
IC50, cell survival, Molt4 [1]: ≥ 20 nM
IC50, cell survival, Panc-1 [1]: ≥ 20 nM
IC50, cell survival, WI-38 [1]: ≥ 20 nM

B2: 4E6-Hu tetra (4E6 hu tetramer) (other)
chain: EVQLLESGGGLVQPGGSLRLSCAASGRTFGSIRVGWFRQAPGKGREFVSAINRNDGTTYYADSVKGRFTISRDNSKNTVYLQMNSLRPEDTAVYYCAAGLQYNRAADRVPVGAVYWGQGTLVTVSSGGGGSGGGGSGGGGSGGGGSGGGGSGGGGSGGGGSEVQLLESGGGLVQPGGSLRLSCAASGRTFGSIRVGWFRQAPGKGREFVSAINRNDGTTYYADSVKGRFTISRDNSKNTVYLQMNSLRPEDTAVYYCAAGLQYNRAADRVPVGAVYWGQGTLVTVSSGGGGSGGGGSGGGGSGGGGSGGGGSGGGGSGGGGSEVQLLESGGGLVQPGGSLRLSCAASGRTFGSIRVGWFRQAPGKGREFVSAINRNDGTTYYADSVKGRFTISRDNSKNTVYLQMNSLRPEDTAVYYCAAGLQYNRAADRVPVGAVYWGQGTLVTVSSGGGGSGGGGSGGGGSGGGGSGGGGSGGGGSGGGGSEVQLLESGGGLVQPGGSLRLSCAASGRTFGSIRVGWFRQAPGKGREFVSAINRNDGTTYYADSVKGRFTISRDNSKNTVYLQMNSLRPEDTAVYYCAAGLQYNRAADRVPVGAVYWGQGTLVTVSS
IC50, cell survival, A549 [15]: > 10 nM
IC50, cell survival, BxPC-3 [15]: 0.0292 nM
IC50, cell survival, Colo205 [15]: 0.0034 nM
IC50, cell survival, H226 [15]: 0.129 nM
IC50, cell survival, H2122 [15]: 0.0051 nM
IC50, cell survival, Jurkat (72) [15]: 0.0172 nM
IC50, cell survival, M30 [15]: > 10 nM
IC50, cell survival, MiaPaCa-2 [15]: 0.0185 nM
IC50, cell survival, Panc-1 [15]: 0.229 nM
IC50, cell survival, T24 [15]: 0.0447 nM
IC50, cell survival, Colo205 [16]: 0.012 nM
IC50, cell survival, Jurkat [16]: 0.0026 nM

B3: 11H6-hu tetra (11H6 hu tetramer) (VHH)
chain: EVQLLESGGGLVQPGGSLRLSCAASGTFDKINNMGWYRQAPGKQRDLVAQITPGGITDYADSVKGRFTISRDNSKNTLYLQMNSLRPEDTAVYYCNAEILKRAYIDVYVNYWGQGTLVTVSSGGGGSGGGGSGGGGSGGGGSGGGGSGGGGSGGGGSEVQLLESGGGLVQPGGSLRLSCAASGTFDKINNMGWYRQAPGKQRDLVAQITPGGITDYADSVKGRFTISRDNSKNTLYLQMNSLRPEDTAVYYCNAEILKRAYIDVYVNYWGQGTLVTVSSGGGGSGGGGSGGGGSGGGGSGGGGSGGGGSGGGGSEVQLLESGGGLVQPGGSLRLSCAASGTFDKINNMGWYRQAPGKQRDLVAQITPGGITDYADSVKGRFTISRDNSKNTLYLQMNSLRPEDTAVYYCNAEILKRAYIDVYVNYWGQGTLVTVSSGGGGSGGGGSGGGGSGGGGSGGGGSGGGGSGGGGSEVQLLESGGGLVQPGGSLRLSCAASGTFDKINNMGWYRQAPGKQRDLVAQITPGGITDYADSVKGRFTISRDNSKNTLYLQMNSLRPEDTAVYYCNAEILKRAYIDVYVNYWGQGTLVTVSS
IC50, cell survival, Colo205 [17]: 0.02 nM
IC50, cell survival, Jurkat [17]: 0.016 nM
IC50, cell survival, A549 [15]: > 10 nM
IC50, cell survival, BxPC-3 [15]: 0.0154 nM
IC50, cell survival, Colo205 [15]: 0.0036 nM
IC50, cell survival, H226 [15]: 0.172 nM
IC50, cell survival, H2122 [15]: 0.0041 nM
IC50, cell survival, Jurkat (72) [15]: 0.0007 nM
IC50, cell survival, M30 [15]: > 10 nM
IC50, cell survival, MiaPaCa-2 [15]: 0.0117 nM
IC50, cell survival, Panc-1 [15]: 0.232 nM
IC50, cell survival, T24 [15]: 0.0222 nM

From patent US20150259426A1 (Novartis, published 2015)
